Source: patent publication US6500431B1, “Inhibitors of angiogenesis and tumor growth” (University of Southern California, priority 1998, dated 2002)

What was measured:
[1] = system: KS cell lines; assay: Activity of recombinant Prosaposin chains on growth of KS cell lines; type: cell-based; conditions: FIG. 1
Text: In order to determine whether recombinant Saposin B has anti-angiogenic activity, the coding region of each of the Prosaposin chains was amplified from fibroblast cell lines and cloned into both bacterial (pGEX-KG) and eukaryotic (pcDNA 3.1His A) expression vectors.
The PCR products were digested with the respective restriction enzymes and the restriction products were inserted into the pGEX-KG vector for bacterial expression. pGEX-KG vector comprises a glutathione S transferase (GST)-tag at the […] of the insertion site so that a GST-fusion protein is expressed. The GST-tag is used to aid in purification of the recombinant protein. After elution from a glutathione-Sepharose 4B column, the GST-tagged proteins were incubated with thrombin (4 μg/ml) for 4 hr at room temperature (22-25° C.) in 50 mM Tris, pH 8.3, 3 mM CaCl2, 150 mM NaCl to cleave GST from the fusion protein. Free GST was removed from the preparation by passing the digested fusion protein through the glutathione-Sepharose 4B column.
By SDS-PAGE, the bacterial product was smaller than the eukaryotic protein. Because prokaryotically expressed proteins are not glycosylated, the difference in molecular weights probably represents the presence of carbohydrate in the eukaryotic protein. Recombinant proteins were then tested in KS, endothelial and control cell lines. Activity was found only in KS cell lines and endothelial cells.

[2] = system: Lewis lung carcinoma, melanoma (B16), T-cell lymphoma (EL-4), KS Y-1; assay: Syngeneic tumors in C57BL/6 mice, KS Y-1 in nude mice; type: in vivo; conditions: 2.5 mg/kg the day following implantation; two weeks
Experimental: FIG. 4: Inhibition of tumor growth in mice. C57BL/6 mice were implanted with Lewis lung carcinoma, melanoma (B16), and T-cell lymphoma (EL4). KS Y-1 was implanted in nude mice as a positive control. One day after implantation 2.5 mg/kg of Saposin B was injected into the mice subcutaneously.
To determine whether this anti-tumor effect was reproducible with different classes of syngeneic tumors, C57BL/6 mice were implanted with Lewis lung carcinoma, melanoma (B16), and T-cell lymphoma (EL-4) cell lines. KS Y-1 was implanted into nude mice for a positive control. The day following tumor implantation, 2.5 mg/kg of Saposin B was administered intraperitoneally. Tumor size was measured three times a week for two weeks at which time the mice were sacrificed for analysis. […] See, FIG. 4

[3] = system: KS-SLK or KS Y-1 cells; assay: KS-SLK or KS Y-1 tumors in nude mice; type: in vivo; conditions: daily subcutaneous 1, 10 and 20 mg/kg after one week of tumor development
Experimental: In order to determine the anti-angiogenic activity of the recombinant Saposin B, tumor cells were implanted in immuno-deficient mice and treated with either Saposin B or buffer alone.
Nude mice were injected with 2×10^6 KS-SLK or KS Y-1 cells subcutaneously in a total volume of 100 μL. After one week of tumor development, the mice were injected subcutaneously daily with either PBS or Saposin B at concentrations of 1, 10 and 20 mg/kg for a total protein concentration of […]. The tumor size was measured three times a week. The results represent the median of 4 mice in each group.

[4] = system: CD34+/Flk-1+ cells from cord blood; assay: Growth of CD34+/Flk-1+ progenitors on fibronectin coated dishes; type: cell-based, human; conditions: 50 ng/mL Saposin B
Text: A bone marrow derived human CD34+/Flk-1+ progenitor cell can be mobilized into the blood stream in response to tumor induced signals such as VEGF and cytokine production. These cells can target to sites of angiogenesis where they mature into activated endothelial cells and thus contribute to the generation of new blood vessels at the tumor site. By blocking the production of these cells or by targeting these cells (i.e., the CD34+/Flk-1+ progenitors and the activated endothelial cell they can become), the angiogenesis/vasculogenesis required for tumor growth can be reduced or halted. […] The adherent cells take on a spindle-shaped morphology characteristic of the activated vascular endothelial cells typical of the angiogenic process. These cells express endothelial-specific markers including factor VIII, ulex europaeus agglutinin-1 (UEA-1), endothelial constitutive nitric oxide synthase (ecNOS), and E selectin. Further, when these cells (peripheral blood Flk+ progenitors) are infused into mice, they incorporate into newly formed blood vessels at site of injury. These observation identify CD34+/Flk-1+ bone marrow derived progenitors as a putative precursor to vascular endothelial cells. Preventing these cells from colonizing at distal sites of angiogenesis in tumors has enormous implication for the treatment of tumors. […]

[5] = system: Human bone marrow cells and peripheral blood mononuclear cells; assay: Stem cell clonogenic assays in methylcellulose; type: cell-based
Experimental: Human bone marrow cells and peripheral blood mononuclear cells were harvested from a subject after the administration of high doses of cyclophosphamide and G-CSF. Stem cell clonogenic assays in methylcellulose were performed with IL-3, erythropoietin, and VEGF (10 ng/mL, and 100 ng/mL). VEGF was used to determine if there are progenitor cells with self replication capacity but without adherence to extracellular matrix such as fibronectin. It was also desirable to determine if Saposin B was toxic to endothelial cell specific progenitors for hematopoietic (myeloid or erythroid) lineage cells.
These colonies contained mixture of cells indicating more than one cell lineage generated in response to VEGF. The colonies also contained spindle shaped cells which mark the presence of VEGF receptors.

[6] = system: KS Y-1 cells; assay: KS cell migration assay, fibronectin-coated transwell; type: cell-based; conditions: chemotaxis induced by VEGF or bFGF
Experimental: The assays were done in double chamber wells separated by […] membrane. Chemotaxis was induced by bFGF (25 ng/mL) in the lower chamber. Endothelial cells or KS cells (5×10^4/mL) were placed in the upper chamber in the presence and absence of test polypeptides. Taxol at 10 ng/mL was used as a known inhibitor of migration. Cell migration across the membrane was quantitated after an overnight incubation.
Angiogenesis is mediated by complex biochemical processes including degradation of the basement membrane under existing blood vessel endothelial cells, followed by proliferation and migration of endothelial cells, followed by formation of capillary loops, and recruitment of vascular smooth muscle cells to encase the newly formed vessels and provide stability. KS and endothelial cell migration in the presence of Saposin B was studied in transwell culture plates with 8 μm pore membranes (Costar, Cambridge, Mass.).
Briefly, wells were coated with fibronectin (25 μg/mL) overnight, and endothelial cells or KS cells were plated in the upper chamber with 100 μL of DMEM/0.4% FCS. 500 μL of DMEM/0.4% FCS was added to the lower chamber and incubated at 37° C. for one hour. The test polypeptides, at various concentrations, were added to the upper chamber, and chemotactic agents (VEGF or bFGF at 20 ng/mL) were added to the lower cell-culture chambers. The plates were incubated for 5 hr at 37° C. and the cells crossing the fibronectin-coated membrane were counted after wiping the cells off the membrane in the upper chamber with a cotton swab.
The cells that traversed the membrane were fixed with Diff-Quik stain according to the manufacturer's instruction (Dade Diagnostics Inc., Aguada, PR). The cells were counted under a microscope at 320× in four randomly selected fields. The experiments were done in duplicate and repeated at least three times.

B1: Saposin B: polypeptide fragment of Prosaposin (positions 190 to 269), SEQ ID NO:2; recombinantly expressed (protein)
chain: GDVCQDCIQMVTDIQTAVRTNSTFVQALVEHVKEECDRLGPGMADICKNYISQYSEIAIQMMMHMQPKEICALVGFCDEVK
growth inhibition of KS cells [1]: dose dependent growth inhibition | tumor growth [2]: profound inhibition of tumor growth | tumor growth [3]: markedly retarded | CD34+/Flk-1+ progenitor growth [4]: inhibited | cytotoxic effect on colonies developed with IL-3 or erythropoietin [5]: no cytotoxic effect | effect on colonies generated with VEGF ([5]; VEGF 10 ng/mL and 100 ng/mL): loss of spindle shaped cells | inhibition of KS cell migration [6]: compete inhibition of cell migration
